In patent US20210139582A1 (published 2021):
Positions count from the first letter of the chain named. Names and notes keep the numbering of the source.

T1: C-terminus biotinylated monomeric human CD32a^H (FcγRIIa, histidine-131 variant), recombinant (human, UniProt P12318 34-218, limits assumed, C-terminus biotinylated (site-specific))
T1 construct: Captured on neutravidin (ELISA plates or CM5 chips); Bought reagent; also called CD32a-H131
T1 sequence (looked up): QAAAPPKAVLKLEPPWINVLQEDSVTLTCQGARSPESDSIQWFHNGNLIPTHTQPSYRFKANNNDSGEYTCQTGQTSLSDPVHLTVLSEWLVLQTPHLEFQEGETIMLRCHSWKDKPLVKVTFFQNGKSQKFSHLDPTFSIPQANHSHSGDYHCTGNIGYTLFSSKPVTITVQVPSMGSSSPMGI

B1: anti-NIP hIgG1-M252Y/S254T/T256E/H433K/N434F (hIgG1^MST/HN) (antibody)
chain: ASTKGPSVFPLAPSSKSTSGGTAALGCLVKDYFPEPVTVSWNSGALTSGVHTFPAVLQSSGLYSLSSVVTVPSSSLGTQTYICNVNHKPSNTKVDKKVEPKSCDKTHTCPPCPAPELLGGPSVFLFPPKPKDTLYITREPEVTCVVVDVSHEDPEVKFNWYVDGVEVHNAKTKPREEQYNSTYRVVSVLTVLHQDWLNGKEYKCKVSNKALPAPIEKTISKAKGQPREPQVYTLPPSRDELTKNQVSLTCLVKGFYPSDIAVEWESNGQPENNYKTTPPVLDSDGSFFLYSKLTVDKSRWQQGNVFSCSVMHEALKFHYTQKSLSLSPGK
B2: anti-NIP hIgG1-I253A/H310A/H435A (hIgG1^IHH) (antibody)
chain: B1 chain with Y135M, I136A, T137S, E139T, H193A, K316H, F317N, H318A

Tests used:
[1] = biological target: T2, His-tagged soluble mouse FcRn (recombinant, insect cell produced) (mouse, UniProt Q61559 22-290); test: method not stated; acidic pH
T2 sequence (Q61559 22-290): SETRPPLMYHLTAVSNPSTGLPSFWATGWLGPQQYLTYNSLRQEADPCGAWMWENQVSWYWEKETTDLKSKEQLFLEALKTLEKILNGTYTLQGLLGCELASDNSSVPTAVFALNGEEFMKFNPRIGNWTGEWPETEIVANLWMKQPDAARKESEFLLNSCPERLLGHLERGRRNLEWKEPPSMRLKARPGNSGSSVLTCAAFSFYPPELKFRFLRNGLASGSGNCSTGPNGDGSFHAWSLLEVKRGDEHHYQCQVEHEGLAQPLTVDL

[2] = biological target: T2, His-tagged soluble mouse FcRn …; test: method not stated; neutral pH
[3] = biological target: T1, C-terminus biotinylated monomeric human …; test: SPR, estimated steady state KD, monomeric IgG, pH 7.4

Binder	Kd [1]	Kd [2]	Kd [3]
B1	1.2 nM	7.4 nM	2.8 µM
B2	–	–	4.8 µM
